Literature values as cited in US20230365625A1, “METHODS FOR TREATING AND/OR PREVENTING UNDESIRABLE SEQULAE OF NASAL TURBINOPLASTY OR FUNCTIONAL ENDOSCOPIC SINUS SURGERY” (3-D Matrix, Ltd., priority 2022, published 2023).
“Also recorded” adds a separate entry of the source. Where two headings read alike, the source gives them in different places.

Tests used:
[1] = cited from earlier work
[2] = cited from earlier work; remark: listed apart in the source
[3] = RADA16 2.5%, IEIK13 1.3%, QLEL12 0.15% in water; result in words; cited from earlier work
[4] = 1% in water; cited from earlier work
[5] = tested on: punch hole injuries to the liver; conditions: pig, in vivo; cited from earlier work
[6] = in solution before DMEM, RADA16 assumed 2.5% wt/vol, IEIK13 concentration unknown

Substance	Storage modulus G′ ([1]; 1% in water) [Pa]	Gel stiffness compared to RADA16 ([2]; exposed to physiological conditions, result in words)	Median loss modulus G″ [2, 6] [Pa]	Median storage modulus G′ [2, 6] [Pa]	Effect of gamma-irradiation sterilization [3]	Increase in storage modulus G′ after DMEM treatment relative to before [4] [fold]	Storage modulus after DMEM treatment [4] [Pa]	Inflammatory cell infiltration due to the gel in the wound [5]	Storage modulus G′ ([1]; 1.5% in water)	Storage modulus G′ ([1]; 2.5% in water) [Pa]
Ac-IEIKIEIKIEIKI-NH2 [IEIK13]	~700	forms a stiffer gel; also recorded: form a stiffer hydrogel matrix	116	1145	enhanced the rheological properties	7.4	5314	absence if inflammatory cell infiltration		
Ac-QLELQLELQLEL-NH2 [QLEL12, self-assembling peptide]					significant degradation and viscosity drop					
KLDKLDKLDKLD [KLD12]						23.9			about 350 Pa	~700
